From publication doi:10.1101/2020.02.11.943977 come the findings set out here.

The target of the series is Replication protein A (RPA heterotrimer) (human) (UniProt P27694+P15927+P35244). Put plainly: competition.
Replication protein A (RPA heterotrimer) (human), sequence (P27694 whole entry, chain 1 of 3): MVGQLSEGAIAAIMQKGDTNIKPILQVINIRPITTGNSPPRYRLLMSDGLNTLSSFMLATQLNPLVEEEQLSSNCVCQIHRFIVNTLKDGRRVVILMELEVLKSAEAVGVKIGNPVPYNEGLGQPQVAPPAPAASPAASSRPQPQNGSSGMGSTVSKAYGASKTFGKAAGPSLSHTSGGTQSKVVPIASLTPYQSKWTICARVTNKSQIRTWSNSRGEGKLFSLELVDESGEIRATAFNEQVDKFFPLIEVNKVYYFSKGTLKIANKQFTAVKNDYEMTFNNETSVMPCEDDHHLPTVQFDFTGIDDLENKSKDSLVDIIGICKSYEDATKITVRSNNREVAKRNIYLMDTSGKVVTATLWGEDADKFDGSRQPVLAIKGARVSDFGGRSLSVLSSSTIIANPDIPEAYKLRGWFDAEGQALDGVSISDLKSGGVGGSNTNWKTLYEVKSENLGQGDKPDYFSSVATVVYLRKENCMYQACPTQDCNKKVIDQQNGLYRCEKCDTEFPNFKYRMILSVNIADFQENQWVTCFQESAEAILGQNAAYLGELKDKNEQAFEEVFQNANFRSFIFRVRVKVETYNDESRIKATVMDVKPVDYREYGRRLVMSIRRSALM
Replication protein A (RPA heterotrimer) (human), sequence (P15927 whole entry, chain 2 of 3): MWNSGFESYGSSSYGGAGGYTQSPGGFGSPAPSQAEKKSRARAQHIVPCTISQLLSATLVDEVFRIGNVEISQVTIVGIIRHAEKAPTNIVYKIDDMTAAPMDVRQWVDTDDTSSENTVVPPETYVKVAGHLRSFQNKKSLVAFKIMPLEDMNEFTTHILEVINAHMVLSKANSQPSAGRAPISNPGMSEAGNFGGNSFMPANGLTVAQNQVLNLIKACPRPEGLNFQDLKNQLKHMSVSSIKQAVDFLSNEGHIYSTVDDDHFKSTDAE
Replication protein A (RPA heterotrimer) (human), sequence (P35244 whole entry, chain 3 of 3): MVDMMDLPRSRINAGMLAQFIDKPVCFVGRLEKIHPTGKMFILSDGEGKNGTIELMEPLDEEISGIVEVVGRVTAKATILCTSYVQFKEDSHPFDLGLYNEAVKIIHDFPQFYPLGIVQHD

For the substance pHSG299 supercoiled plasmid, the binding signal reads like this: (scale: fold lower affinity than RNA 501) 500; (scale: fold lower affinity than ssDNA 211) 33000.
